From patent US20230241243A1, “CARRIER PARTICLE-DRUG CONJUGATES, SELF-IMMOLATIVE LINKERS, AND USES THEREOF” (priority 2020, published 2023) come the findings set out here.

The data set can be described thus: Drug-release assay of nanoparticle-conjugated linker-payloads under cleavage conditions (Cat-B, redox-responsive or pH-sensitive cleaving study), RP-HPLC. The class given is in vitro ADME. As to conditions: linker-payload conjugated to DBCO-functionalized silica nanoparticle, 37° C., 24 hours. The procedure: To assess the drug releasing profile of exemplary linker-drug conjugates, the linker-drug conjugates were each conjugated to a DBCO-functionalized ultrasmall silica nanoparticle via a click chemistry reaction between the azide groups on the linker-drug conjugate precursors and the dibenzocyclooctyne (DBCO) groups of the nanoparticles. The resulting drug-nanoparticle-conjugates were then incubated under the desired releasing conditions for release kinetics tests.
The amount of released drugs vs non-released drugs was measured using reverse phase HPLC by analyzing the area under curve (AUC) (FIG. 10A and FIG. 10B).
General Method: A Waters Xbridge Peptide BEH C18 column with 4.6 mm×50 mm dimensions, a particle size of 5 μm, and a pore size of 300 A was used (part number 186003622). Acetonitrile (VWR HiPerSolv Chromanorm, UHPLC Grade) was used as received without further preparation, […] trifluoroacetic acid in deionized water was prepared by adding 1 mL of trifluoroacetic acid (HPLC grade, Millipore-Sigma) into 999 mL 18.2 MΩ·cm deionized water that was generated using an IQ7000 Millipore deionized water system and passed through a 0.2 μm filter before use. The seal wash used for the system was composed of 90% 18.2 MΩ·cm deionized water and 10% methanol (HPLC grade, VWR). The injection needle was washed using a mixture of 25 vol % 18.2 MΩ·cm deionized water, 25 vol % acetonitrile, 25 vol % methanol, and 25 vol % 2-propanol. Samples were prepared in a concentration range of 0.25 to 2 μM and the injection volume ranges from 60 μL to 10 μL, respectively. Higher sample concentration can be used if detector signal is low. Vials used for all injections are fresh Waters Total Recovery vials with screw caps that have pre-slit PTFE septa (part number 186000385C).
Method for Protease-cleavable and Redox-responsive Linkers: Before any sample injections were started, the PDA lamp was turned on and allowed to warm up for at least 30 minutes. The system and column were equilibrated with 95% 0.01% TFA in deionized water, 5% acetonitrile for at least 10 minutes at a flow rate of 1.0 mL/min after the PDA lamp had warmed up. Two blank injections, with injection volumes of 10 μL containing only 18.2 MΩ·cm deionized water, were performed before the injection of any samples for analysis. The gradient used to elute protease-cleavable and redox-sensitive linkers conjugated to hybrid silica nanoparticles, and their components began at 95% 0.01% TFA in deionized water and 5% acetonitrile and linearly changed to 15% 0.01% TFA in deionized water, 85% acetonitrile over 8 minutes. Acetonitrile composition was increased to 95% over an additional minute and held at 95% for an additional 2 minutes to ensure that any strongly retained compounds are eluted. The composition of the solvent was then changed back to the starting composition of the gradient over an additional minute and allowed to equilibrate for 3 minutes before another injection began. Between sample injections a blank injection was run to ensure that no carryover occurred.
Method for pH-sensitive Linkers: Before any sample injections were started, the PDA lamp was turned on and allowed to warm up for at least 30 minutes. A gradient of pure deionized water and acetonitrile was used, all other consumables including column and vials were the same as for the method to purify Cat-B sensitive and redox-responsive linkers elaborated on above. Briefly the gradient composition began at 95% deionized water and 5% acetonitrile at a flow rate of 1.0 mL/min (not changed throughout the method). The composition was changed from this starting composition to 15% deionized water and 85% acetonitrile over a 12-minute period, during which the retained drug-linkers, released drug, free drug linker, and any other impurities eluted. At the 12-minute mark the composition was rapidly changed to 5% deionized water and 95% acetonitrile over the course of one minute. […]

Consider `CC[C@@]1(O)C(=O)OCc2c1cc1n(c2=O)Cc2c-1nc1cc(F)c(C)c3c1c2[C@@H](NC(=O)OCc1ccc(NC(=O)[C@H](CCCNC(N)=O)NC(=O)[C@@H](NC(=O)CCOCCOCCOCCOCCOCCN=[N+]=[N-])C(C)C)cc1)CC3` [Example 9, 4-((20S,23S)-1-azido-20-isopropyl-18,21-dioxo-23-(3-ureidopropyl)-3,6,9,12,15-pentaoxa-19,22-diazatetracosan-24-amido)benzyl ((1S,9S)-9-ethyl-5-fluoro-9-hydroxy-4-methyl-10,13-dioxo-2,3,9,10,13,15-hexahydro-1H,12H-benzo[de]pyrano[3′,4′:6,7]indolizino[1,2-b]quinolin-1-yl)carbamate], for which the “% of Payload Release in 24 Hours Under Cleavage Conditions” value (“% of Payload Release” below) was “++++ (‘++++’ indicates 76-100% release)”. Consider `CC[C@@]1(O)C(=O)OCc2c1cc1n(c2=O)Cc2c-1nc1cc(F)c(C)c3c1c2[C@@H](NC(=O)OCc1ccc(NC(=O)[C@H](CCCCN)NC(=O)[C@H](Cc2ccccc2)NC(=O)CCOCCOCCOCCOCCOCCOCCOCCOCCOCCOCCN=[N+]=[N-])cc1)CC3` [Example 26, 4-((35S,38S)-38-(4-aminobutyl)-1-azido-35-benzyl-33,36-dioxo-3,6,9,12,15,18,21,24,27,30-decaoxa-34,37-diazanonatriacontan-39-amido)benzyl ((1S,9S)-9-ethyl-5-fluoro-9-hydroxy-4-methyl-10,13-dioxo-2,3,9,10,13,15-hexahydro-1H,12H-benzo[de]pyrano[3′,4′:6,7]indolizino[1,2-b]quinolin-1-yl)carbamate], for which the “% of Payload Release” value was “+ (‘+’ indicates 5-25% release)”.

Turning to `CCc1c2c(nc3ccc(OCCCNC(=O)OCc4ccc(NC(=O)[C@H](CCCNC(N)=O)NC(=O)[C@@H](NC(=O)CCOCCOCCOCCOCCOCCOCCOCCOCCOCCN=[N+]=[N-])C(C)C)cc4)cc13)-c1cc3c(c(=O)n1C2)COC(=O)[C@]3(O)CC` [Example 16, 4-((32S,35S)-1-azido-32-isopropyl-30,33-dioxo-35-(3-ureidopropyl)-3,6,9,12,15,18,21,24,27-nonaoxa-31,34-diazahexatriacontan-36-amido)benzyl (3-(((S)-4,11-diethyl-4-hydroxy-3,14-dioxo-3,4,12,14-tetrahydro-1H-pyrano[3′,4′:6,7]indolizino[1,2-b]quinolin-9-yl)oxy)propyl)carbamate], the “% of Payload Release” value is given as “+++ (‘+++’ indicates 51-75% release)”. Turning to `CCc1c2c(nc3ccc(OCCCSSC(C)(C)CNC(=O)CCOCCOCCOCCOCCOCCN=[N+]=[N-])cc13)-c1cc3c(c(=O)n1C2)COC(=O)[C@]3(O)CC` [Example 54, (S)-1-azido-N-(2-((3-((4,11-diethyl-4-hydroxy-3,14-dioxo-3,4,12,14-tetrahydro-1H-pyrano[3′,4′:6,7]indolizino[1,2-b]quinolin-9-yl)oxy)propyl)disulfanyl)-2-methylpropyl)-3,6,9,12,15-pentaoxaoctadecan-18-amide], the “% of Payload Release” value is “+ (‘+’ indicates 5-25% release)”. In the case of `CCc1c2c(nc3ccc(OCc4c(F)cc(NC(=O)[C@H](CCCNC(N)=O)NC(=O)[C@@H](NC(=O)CCOCCOCCOCCOCCOCCOCCOCCOCCOCCOCCOCCN=[N+]=[N-])C(C)C)cc4F)cc13)-c1cc3c(c(=O)n1C2)COC(=O)[C@]3(O)CC` [Example 22, 1-azido-N-((S)-1-(((S)-1-((4-((((S)-4,11-diethyl-4-hydroxy-3,14-dioxo-3,4,12,14-tetrahydro-1H-pyrano[3′,4′:6,7]indolizino[1,2-b]quinolin-9-yl)oxy)methyl)-3,5-difluorophenyl)amino)-1-oxo-5-ureidopentan-2-yl)amino)-3-methyl-1-oxobutan-2-yl)-3,6,9,12,15,18,21,24,27,30,33-undecaoxahexatriacontan-36-amide] it was “+ (‘+’ indicates 5-25% release)”.
